Measured values taken from patent US20100216693A1 (published 2010).

B1: C-peptide variant Glu11-Ala (peptide)
peptide: EAEDLQVGQVALGGGPGAGSLQPLALEGSLQ
B2: C-peptide variant Glu27-Ala (peptide)
peptide: EAEDLQVGQVELGGGPGAGSLQPLALAGSLQ
notes: also called Glu27Ala C-peptide analogue
B3: C-peptide variant with Glu3, 11 and 27 all exchanged for Ala (peptide)
peptide: EAADLQVGQVALGGGPGAGSLQPLALAGSLQ

Biological target: T1, Human insulin (Actrapid) (human)
T1 construct: On the chip it was coupled through the N-terminus (amine coupling) or the C-terminus (surface thiol coupling); also called free insulin; immobilized insulin
T1 sequence (chain, as listed by the source, chain 1 of 2): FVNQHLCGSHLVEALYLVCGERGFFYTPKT
T1 sequence (chain, as listed by the source, chain 2 of 2): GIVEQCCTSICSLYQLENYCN
Assay: SPR, immobilized insulin

Row | Binder | binding result
1 | B1 | no binding
2 | B2 | no binding
3 | B3 | no binding
